A word on the EC50: it is the concentration giving half of the maximal effect. The low end stands for a more potent agent, the high end for a less potent agent. In general, Kd refers to the free concentration of one partner at which half of the binding sites on the other are occupied at equilibrium, for simple one-to-one binding. Read a low Kd as tighter binding. By koff is commonly meant the first-order rate constant of dissociation. A lower koff goes with a long-lived complex. By kon is commonly meant a measure of how fast the partners come together. Low readings indicate slower complex formation, high ones faster complex formation.

Sequences and labels used below:
B1: VGX-300 (Fc fusion)
chain: YSMTPPTLNITEESHVIDTGDSLSISCRGQHPLEWAWPGAQEAPATGDKDSEDTGVVRDCEGTDARPYCKVLLLHEVHANDTGSYVCYYKYIKARIEGTTAASSYVFVRDFEQPFINKPDTLLVNRKDAMWVPCLVSIPGLNVTLRSQSSVLWPDGQEVVWDDRRGMLVSTPLLHDALYLQCETTWGDQDFLSNPFLVHITGNELYDIQLLPRKSLELLVGEKLVLNCTVWAEFNSGVTFDWDYPGKQAERGKWVPERRSQQTHTELSSILTIHNVSQHDLGSYVCKANNGIQRFRESTEVIVHE
notes: only Ig-like domains I-III were in the molecule; Produced by transient expression in CHO or HEK cells; also called Parent; VGX-300 parent; not shown: Fc region gamma chain (detected with anti-human IgG)
B2: VGX-301-ΔN2 (Fc fusion)
chain: B1 chain with N80Q
notes: also called N2 mutant; not shown: Fc region gamma chain as in VGX-300
B3: Human VEGF-D (ligand, UniProt O43915 93-201, looked up)
chain: FYDIETLKVIDEEWQRTQCSPRETCVEVASELGKSTNTFFKPPCVNVFRCGGCCNEESLICMNTSTSYISKQLFEISVPLTSVPELVPVKVANHTGCKCLPTAPRHPYS
notes: also called VEGF-D ligand
B4: Human VEGF-C (ligand, UniProt P49767 103-227, looked up)
chain: TEETIKFAAAHYNTEILKSIDNEWRKTQCMPREVCIDVGKEFGVATNTFFKPPCVSVYRCGGCCNSEGLQCMNTSTSYLSKTLFEITVPLSQGPKPVTISFANHTSCRCMSKLDVYRQVHSIIRR
notes: also called VEGF-C ligand

Assay [1] addresses B3. Put plainly: ELISA on plate-coated VEGF-D (2 µg/mL), anti-human IgG-HRP detection; sigmoidal fit of the curve of FIG. 2A. On the technique in general: In an ELISA, binding on a coated surface is turned into a signal by an enzyme label.
Assay [2] addresses B4. Put plainly: ELISA on plate-coated VEGF-C (2 µg/mL), anti-human IgG-HRP detection; sigmoidal fit of the curve of FIG. 2A.
Assay [3] concerns the target B3. Kind of assay: cell-based or functional assay.
Assay [4] has as its target B4. Kind of assay: cell-based or functional assay.
For assay [5], the target named is B3. Put plainly: cell-based or functional assay. The source holds these as a separate data set.
Assay [6] deals with B4. Put plainly: cell-based or functional assay. The source holds these as a separate data set.
For assay [7], the target named is B3. Kind of assay: cell-based or functional assay. This is another data set of the same source.
The target of assay [8] is B4. Put plainly: cell-based or functional assay. This is another data set of the same source.
In assay [9] the target is B2. Put plainly: SPR, ProteOn XPR36; trap captured on protein G' on a GLM chip, ligand as analyte. The source says: (§1) The results of the affinity experiment are provided below in Table 5.
A general note: In SPR one partner is held on a chip, and binding of the other changes the refractive index at the surface.

The target in assay [10] is B1. The assay is described as above.
Source text: as §1

Substitutions are numbered along the chain they refer to. Where two headings read alike, the source gives them in different places.

On to B1, for which the results for the 50% effective concentration (EC50) in assay [1] and in assay [2] were 0.504 µg/mL and 0.058 µg/mL, respectively. Besides, in assay [3], the “IC50 (read off the curve); VEGF-D-driven proliferation (WST-1) of Ba/F3 cells with the VEGFR-2 ECD/EpoR chimeric receptor” value is ~3 µg/mL. Besides, in [4], the “IC50 (read off the curve); VEGF-C-driven proliferation (WST-1) of Ba/F3 cells with the VEGFR-2 ECD/EpoR chimeric receptor” value was ~0.02 µg/mL. Further, the “IC50 (read off the curve); VEGF-D-driven proliferation (WST-1) of Ba/F3 cells with the VEGFR-3 ECD/EpoR chimeric receptor” value is ~0.4 µg/mL in [5] and ~0.5 µg/mL in [7]. Besides, the results for the “IC50 (read off the curve); VEGF-C-driven proliferation (WST-1) of Ba/F3 cells with the VEGFR-3 ECD/EpoR chimeric receptor” value in assay [6] and in assay [8] were ~0.01 µg/mL and ~0.007 µg/mL, respectively.

B2: the EC50 was found to be 0.105 µg/mL in assay [1] and 0.0295 µg/mL in assay [2]. Moreover, the “IC50 (read off the curve); VEGF-D-driven proliferation (WST-1) of Ba/F3 cells with the VEGFR-3 ECD/EpoR chimeric receptor” value in [7] was ~0.3 µg/mL. For the same molecule, the “IC50 (read off the curve); VEGF-C-driven proliferation (WST-1) of Ba/F3 cells with the VEGFR-3 ECD/EpoR chimeric receptor” value in assay [8] is ~0.005 µg/mL.

On to B3, for which the Kd in [9] is 0.677 nM; in assay [10], 0.625 nM.

In assay [9], B4 registered a Kd of 0.0037 nM, a koff of 1.03e-05 s⁻¹ and an on-rate constant (kon) of 2.79e+06 M⁻¹ s⁻¹. In addition, in assay [10], the Kd was found to be 0.0051 nM, the dissociation rate constant (koff) worked out at 1.11e-05 s⁻¹ and the on-rate (kon) is 2.18e+06 M⁻¹ s⁻¹.
